Patent US20180282402A1 (ATYR PHARMA, published 2018)
Substitutions are numbered along the chain they refer to.

T1: Human HARS (human, UniProt P12081 1-509, limits assumed)
T1 construct: also called human HRS; human histidyl-tRNA synthetase
T1 sequence: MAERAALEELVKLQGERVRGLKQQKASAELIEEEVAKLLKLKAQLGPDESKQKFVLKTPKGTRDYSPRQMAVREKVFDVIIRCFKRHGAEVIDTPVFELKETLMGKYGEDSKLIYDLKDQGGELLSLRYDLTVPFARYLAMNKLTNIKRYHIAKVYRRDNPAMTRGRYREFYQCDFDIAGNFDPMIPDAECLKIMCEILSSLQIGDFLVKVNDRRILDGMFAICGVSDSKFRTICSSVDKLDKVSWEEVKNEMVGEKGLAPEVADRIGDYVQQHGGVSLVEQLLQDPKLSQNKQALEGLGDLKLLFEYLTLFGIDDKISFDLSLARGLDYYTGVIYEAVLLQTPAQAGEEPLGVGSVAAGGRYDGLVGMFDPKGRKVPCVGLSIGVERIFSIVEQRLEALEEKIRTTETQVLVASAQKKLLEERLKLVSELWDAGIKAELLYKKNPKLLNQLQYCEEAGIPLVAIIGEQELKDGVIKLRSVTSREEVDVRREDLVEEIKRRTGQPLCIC

T2: Mouse HARS (mouse, UniProt Q61035 1-509, limits assumed)
T2 construct: also called mouse HRS
T2 sequence: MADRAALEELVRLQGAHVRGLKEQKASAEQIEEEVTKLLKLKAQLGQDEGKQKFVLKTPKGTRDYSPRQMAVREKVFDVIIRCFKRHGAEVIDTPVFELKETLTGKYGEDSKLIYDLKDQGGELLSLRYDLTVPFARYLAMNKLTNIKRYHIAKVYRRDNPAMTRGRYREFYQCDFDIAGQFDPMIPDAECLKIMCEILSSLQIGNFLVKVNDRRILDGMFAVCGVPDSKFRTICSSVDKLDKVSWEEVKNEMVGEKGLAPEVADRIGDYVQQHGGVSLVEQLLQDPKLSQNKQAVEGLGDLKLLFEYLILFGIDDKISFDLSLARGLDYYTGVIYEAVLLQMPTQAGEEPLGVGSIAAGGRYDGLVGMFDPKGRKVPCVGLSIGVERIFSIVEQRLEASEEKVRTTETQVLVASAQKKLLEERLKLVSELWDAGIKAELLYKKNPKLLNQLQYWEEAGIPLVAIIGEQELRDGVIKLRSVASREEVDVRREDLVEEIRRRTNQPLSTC

T3: Fc-HRS(2-60) (human, UniProt P12081 2-60)
T3 construct: Fc at the N-terminus, HRS residues 2-60 (WHEP domain) at the C-terminus; in the imaging assay pre-complexed with anti-Fc-PE; also called HRS-Fc fusion protein construct; ATYR1923; not shown: human IgG Fc region
T3 sequence: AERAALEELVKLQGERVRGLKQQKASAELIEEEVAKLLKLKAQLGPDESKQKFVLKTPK

B1: AB13-112 (IgG4 kappa) (antibody, V domains shown)
VH: QVQLVESGGGLVKPGGSLRLSCAASGFTFSDYYMSWIRQAPGKGLEWVSYISDKSRYTKYTDKVRGRFTISRDNAKNSLYLQMNSLRAEDTAVYYCARYLYQVIAIADAWGQGTLVTVSS
VL: DIQMTQSPSSVSASVGDRVTITCRASQGISSWLAWFQQKPGKAPKLLIFVASNLESGVPSRFSGSGSGTDFTLTISSLQPEDFATYYCQQAESFPYTFGQGTKLEIK
notes: Human
B2: AB13-288 (IgG1m(zf) kappa) (antibody, V domains shown)
VH: B1 VH
VL: B1 VL
notes: Human
B3: AB13-433 (antibody, V domains shown)
VH: B1 VH with K54S, R56T, K59N, K63S, I106V, A109S
VL: B1 VL with F49Y, E92N
notes: Human; IgG1m(zf) kappa
B4: AB13-288 (IgG4-2 kappa) (antibody, V domains shown)
VH: B1 VH
VL: B1 VL
notes: Human
B5: VEGF-A145 (ligand, human, UniProt P15692-6 27-171, looked up)
chain: APMAEGGGQNHHEVVKFMDVYQRSYCHPIETLVDIFQEYPDEIEYIFKPSCVPLMRCGGCCNDEGLECVPTEESNITMQIMRIKPHQGQHIGEMSFLQHNKCECRPKKDRARQEKKSVRGKGKGQKRKRKKSRYKSWSVCDKPRR
B6: GARS Fc-WHEP (Fc fusion, UniProt P41250 63-119, looked up)
chain: VLAPLRLAVRQQGDLVRKLKEDKAPQVDVDKAVAELKARKRVLEAKELALQPKDDIV
notes: domain: WHEP domain; not shown: Fc domain
B7: KL31-467 (antibody, V domains shown)
VH: QVQLVQSGAEVKKPGASVKVSCKASGYTFTDYCIGWIRQAPGQGLEWMGDICPGDTYTNDNEKFKDRATMTADTSTSTAYMELSSLRSEDTAVYYCARGEEQLGLRNAMDYWGQGTLVTVSS
VL: DIVMTQSPDSLAVSLGERATINCQSQSVSTSTYNYMHWYQQKPGQPPKLLIKYASNLESGVPDRFSGSGSGTDFTLTISSLQAEDVATYYCQHSWEIPWTFGGGTKVEIK
notes: Humanized; IgG1m(zf) kappa
B8: KL31-478 (antibody, V domains shown)
VH: B7 VH
VL: EIVLTQSPATLSLSPGERATLSCQSQSVSTSTYNYMHWYQQKPGQAPRLLIKYASNLESGIPDRFSGSGSGTDFTLTISRLEPEDFATYYCGHSYEIPWTFGGGTKVEIK
notes: Humanized; IgG1m(zf) kappa
B9: KL31-356 (antibody, IgG4, V domains shown)
VH: B7 VH
VL: B7 VL
notes: Humanized; IgG4-2 kappa
B10: MARS Fc-WHEP (Fc fusion, UniProt P56192 841-897, looked up)
chain: QIQALMDEVTKQGNIVRELKAQKADKNEVAAEVAKLLDLKKQLAVAEGKPPEAPKGK
notes: as for B6
B11: VEGF-A121 (ligand, human, UniProt P15692-9 27-147, looked up)
chain: APMAEGGGQNHHEVVKFMDVYQRSYCHPIETLVDIFQEYPDEIEYIFKPSCVPLMRCGGCCNDEGLECVPTEESNITMQIMRIKPHQGQHIGEMSFLQHNKCECRPKKDRARQEKCDKPRR
B12: WARS WHEP (other, UniProt P23381 8-64, looked up)
chain: SLLELFNSIATQGELVRSLKAGNASKDEIDSAVKMLVSLKMSYKAAAGEDYKADCPP
notes: domain: WHEP domain; also called WHEP domain of WARS with a V5/His tag; not shown: V5/His tag
B13: VEGF-C (ligand, human, UniProt P49767 103-227, looked up)
chain: TEETIKFAAAHYNTEILKSIDNEWRKTQCMPREVCIDVGKEFGVATNTFFKPPCVSVYRCGGCCNSEGLQCMNTSTSYLSKTLFEITVPLSQGPKPVTISFANHTSCRCMSKLDVYRQVHSIIRR
notes: also called Recombinant Human VEGF-C Protein

What was measured:
[1] = biological target: T1, Human HARS; test: SPR (ProteOn); HRS protein immobilized, antibody as analyte
[2] = biological target: T2, Mouse HARS; test: as above
[3] = biological target: T4, NRP2-Fc (R&D Systems #2215-N2) (human, UniProt O60462 23-864, limits assumed); test: SPR; column Binding to NRP2 observed by SPR
T4 construct: Bought reagent used as NRP2 in the SPR experiments; also called human NRP2; Neuropilin 2; not shown: Fc

[4] = biological target: T4, NRP2-Fc (R&D Systems #2215-N2); test: SPR: NRP2 as analyte over immobilized GARS Fc-WHEP [panel B]
[5] = biological target: T3, Fc-HRS(2-60); test: flow cytometry blocking assay: 43.75 nM biotinylated Fc-HRS(2-60) complexed with 87.5 nM streptavidin-PE, added with titrated antibody to Expi293 cells stably expressing NRP2, the blocked partner [panel A]
[6] = biological target: T3, Fc-HRS(2-60); test: flow cytometry blocking assay: 43.75 nM biotinylated Fc-HRS(2-60) complexed with 87.5 nM streptavidin-PE, added with titrated antibody to Expi293 cells stably expressing NRP2, the blocked partner [panel B]
[7] = biological target: T4, NRP2-Fc (R&D Systems #2215-N2); test: SPR: NRP2 as analyte over immobilized MARS Fc-WHEP [panel C]
[8] = biological target: T4, NRP2-Fc (R&D Systems #2215-N2); test: SPR: NRP2 as analyte over immobilized WARS WHEP [panel D]
[9] = biological target: T5, NRP2a-GFP fusion protein on HEK293T cells (human, UniProt O60462 23-931); test: competition assay, immunofluorescence microscopy on HEK293T cells expressing NRP2v2-GFP, GFP-bright gate; VEGF-C titrated, competitor 175 nM Fc-HRS(2-60)/anti-Fc-PE [panel A]
T5 construct: Transiently expressed; cells fixed before staining; also called NRP2v2-GFP; cell-expressed NRP2a; not shown: GFP (Origene RG220706, NM_003872 ORF clone)
Experimental: HEK293T cells previously transfected with NRP2v2-GFP were passed the night before staining to 96 well Greiner Clear flat bottomed Microplates pre-coated with collagen coating solution. Supernatants were removed and cells were washed 1 time with binding buffer. Cells were then fixed with 50 μL of 3.7% methanol-free formaldehyde for 20 minutes at room temperature. Cells were washed 2× with binding buffer and then blocked with 100 μL of blocking buffer for 1 hour at room temperature. The cells were then washed one time with binding buffer and then incubated with 50 μL of staining complex overnight at 4 degrees Celsius. Cells were then washed 3 times with binding buffer, and then nuclei were counter stained with […] Hoechst diluted in DPBS for 10 minutes at room temperature. The Hoechst stain was replaced with 1×PBS and subsequently read on an IN Cell Analyzer 2200. 20× images were acquired and analyzed using In Cell Analyzer 1000 Workstation software. Segmentation of the cell mask was achieved using the GFP channel, and the average PE signal intensity was determined within this mask above a threshold intensity of 5000 (termed GFP Bright cells).

| Binder | Kd [1] | Kd [2] | also measured |
| --- | --- | --- | --- |
| B1 | < 0.001 nM | 0.0025 nM |  |
| B2 | < 0.001 nM | < 0.001 nM |  |
| B3 | 0.21 nM | 0.21 nM |  |
| B4 | < 0.001 nM | 0.023 nM |  |
| B5 |  |  | binding result [3]: no binding |
| B6 |  |  | binding result [4]: no binding (tested: 20 nM) |
| B7 | 0.21 nM | 0.96 nM | IC50 (read off the curve) [5]: ~20 nM |
| B8 | 0.076 nM | 0.614 nM | IC50 (read off the curve) [6]: ~10 nM |
| B9 | 0.3 nM | 1.4 nM | IC50 (read off the curve) [5]: ~20 nM |
| B10 |  |  | binding result [7]: no binding (tested: 20 nM) |
| B11 |  |  | binding result [3]: no binding |
| B12 |  |  | binding result [8]: no binding (tested: 20 nM) |
| B13 |  |  | IC50 (read off the curve) [9]: ~2 nM |
